Test results published in paper PMC10200994, “A family-wide assessment of latent STAT transcription factor interactions reveals divergent dimer repertoires” (The Journal of Biological Chemistry, 2023).

B1: STAT4 (unphosphorylated, wild-type), fluorophore fusion (natural protein, UniProt Q14765 1-748, looked up)
chain: MSQWNQVQQLEIKFLEQVDQFYDDNFPMEIRHLLAQWIENQDWEAASNNETMATILLQNLLIQLDEQLGRVSKEKNLLLIHNLKRIRKVLQGKFHGNPMHVAVVISNCLREERRILAAANMPVQGPLEKSLQSSSVSERQRNVEHKVAAIKNSVQMTEQDTKYLEDLQDEFDYRYKTIQTMDQSDKNSAMVNQEVLTLQEMLNSLDFKRKEALSKMTQIIHETDLLMNTMLIEELQDWKRRQQIACIGGPLHNGLDQLQNCFTLLAESLFQLRRQLEKLEEQSTKMTYEGDPIPMQRTHMLERVTFLIYNLFKNSFVVERQPCMPTHPQRPLVLKTLIQFTVKLRLLIKLPELNYQVKVKASIDKNVSTLSNRRFVLCGTNVKAMSIEESSNGSLSVEFRHLQPKEMKSSAGGKGNEGCHMVTEELHSITFETQICLYGLTIDLETSSLPVVMISNVSQLPNAWASIIWYNVSTNDSQNLVFFNNPPPATLSQLLEVMSWQFSSYVGRGLNSDQLHMLAEKLTVQSSYSDGHLTWAKFCKEHLPGKSFTFWTWLEAILDLIKKHILPLWIDGYVMGFVSKEKERLLLKDKMPGTFLLRFSESHLGGITFTWVDHSESGEVRFHSVEPYNKGRLSALPFADILRDYKVIMAENIPENPLKYLYPDIPKDKAFGKHYSSQPCEVSRPTERGDKGYVPSVFIPISTIRSDSTEPHSPSDLLPMSPSVYAVLRENLSPTTIETAMKSPYSAE
notes: STAT4, full-length wild type; One molecule for bait and test copies; also called U-STAT4; STAT4-NES; source: HeLa, transiently transfected, in cells; not shown: mCherry (test copy) or mEGFP (bait copy), C-terminal, kept
B2: STAT5A (unphosphorylated, wild-type), fluorophore fusion (natural protein, UniProt P42229 1-794, looked up)
chain: MAGWIQAQQLQGDALRQMQVLYGQHFPIEVRHYLAQWIESQPWDAIDLDNPQDRAQATQLLEGLVQELQKKAEHQVGEDGFLLKIKLGHYATQLQKTYDRCPLELVRCIRHILYNEQRLVREANNCSSPAGILVDAMSQKHLQINQTFEELRLVTQDTENELKKLQQTQEYFIIQYQESLRIQAQFAQLAQLSPQERLSRETALQQKQVSLEAWLQREAQTLQQYRVELAEKHQKTLQLLRKQQTIILDDELIQWKRRQQLAGNGGPPEGSLDVLQSWCEKLAEIIWQNRQQIRRAEHLCQQLPIPGPVEEMLAEVNATITDIISALVTSTFIIEKQPPQVLKTQTKFAATVRLLVGGKLNVHMNPPQVKATIISEQQAKSLLKNENTRNECSGEILNNCCVMEYHQATGTLSAHFRNMSLKRIKRADRRGAESVTEEKFTVLFESQFSVGSNELVFQVKTLSLPVVVIVHGSQDHNATATVLWDNAFAEPGRVPFAVPDKVLWPQLCEALNMKFKAEVQSNRGLTKENLVFLAQKLFNNSSSHLEDYSGLSVSWSQFNRENLPGWNYTFWQWFDGVMEVLKKHHKPHWNDGAILGFVNKQQAHDLLINKPDGTFLLRFSDSEIGGITIAWKFDSPERNLWNLKPFTTRDFSIRSLADRLGDLSYLIYVFPDRPKDEVFSKYYTPVLAKAVDGYVKPQIKQVVPEFVNASADAGGSSATYMDQAPSPAVCPQAPYNMYPQNPDHVLDQDGEFDLDETMDVARHVEELLRRPMDSLDSRLSPPAGLFTSARGSLS
notes: STAT5A, full-length wild type; One molecule for bait and test copies; also called U-STAT5A; STAT5A-NES; source: HeLa, transiently transfected, in cells; not shown: mCherry (test copy) or mEGFP (bait copy), C-terminal, kept
B3: STAT5B (unphosphorylated, wild-type), fluorophore fusion (natural protein, UniProt P51692 1-787, looked up)
chain: MAVWIQAQQLQGEALHQMQALYGQHFPIEVRHYLSQWIESQAWDSVDLDNPQENIKATQLLEGLVQELQKKAEHQVGEDGFLLKIKLGHYATQLQNTYDRCPMELVRCIRHILYNEQRLVREANNGSSPAGSLADAMSQKHLQINQTFEELRLVTQDTENELKKLQQTQEYFIIQYQESLRIQAQFGPLAQLSPQERLSRETALQQKQVSLEAWLQREAQTLQQYRVELAEKHQKTLQLLRKQQTIILDDELIQWKRRQQLAGNGGPPEGSLDVLQSWCEKLAEIIWQNRQQIRRAEHLCQQLPIPGPVEEMLAEVNATITDIISALVTSTFIIEKQPPQVLKTQTKFAATVRLLVGGKLNVHMNPPQVKATIISEQQAKSLLKNENTRNDYSGEILNNCCVMEYHQATGTLSAHFRNMSLKRIKRSDRRGAESVTEEKFTILFESQFSVGGNELVFQVKTLSLPVVVIVHGSQDNNATATVLWDNAFAEPGRVPFAVPDKVLWPQLCEALNMKFKAEVQSNRGLTKENLVFLAQKLFNNSSSHLEDYSGLSVSWSQFNRENLPGRNYTFWQWFDGVMEVLKKHLKPHWNDGAILGFVNKQQAHDLLINKPDGTFLLRFSDSEIGGITIAWKFDSQERMFWNLMPFTTRDFSIRSLADRLGDLNYLIYVFPDRPKDEVYSKYYTPVPCESATAKAVDGYVKPQIKQVVPEFVNASADAGGGSATYMDQAPSPAVCPQAHYNMYPQNPDSVLDTDGDFDLEDTMDVARRVEELLGRPMDSQWIPHAQS
notes: STAT5B, full-length wild type; One molecule for bait and test copies; also called U-STAT5B; STAT5B-NES; source: HeLa, transiently transfected, in cells; not shown: mCherry (test copy) or mEGFP (bait copy), C-terminal, kept
B4: STAT1 (unphosphorylated, wild-type), fluorophore fusion (natural protein, UniProt P42224 1-750, looked up)
chain: MSQWYELQQLDSKFLEQVHQLYDDSFPMEIRQYLAQWLEKQDWEHAANDVSFATIRFHDLLSQLDDQYSRFSLENNFLLQHNIRKSKRNLQDNFQEDPIQMSMIIYSCLKEERKILENAQRFNQAQSGNIQSTVMLDKQKELDSKVRNVKDKVMCIEHEIKSLEDLQDEYDFKCKTLQNREHETNGVAKSDQKQEQLLLKKMYLMLDNKRKEVVHKIIELLNVTELTQNALINDELVEWKRRQQSACIGGPPNACLDQLQNWFTIVAESLQQVRQQLKKLEELEQKYTYEHDPITKNKQVLWDRTFSLFQQLIQSSFVVERQPCMPTHPQRPLVLKTGVQFTVKLRLLVKLQELNYNLKVKVLFDKDVNERNTVKGFRKFNILGTHTKVMNMEESTNGSLAAEFRHLQLKEQKNAGTRTNEGPLIVTEELHSLSFETQLCQPGLVIDLETTSLPVVVISNVSQLPSGWASILWYNMLVAEPRNLSFFLTPPCARWAQLSEVLSWQFSSVTKRGLNVDQLNMLGEKLLGPNASPDGLIPWTRFCKENINDKNFPFWLWIESILELIKKHLLPLWNDGCIMGFISKERERALLKDQQPGTFLLRFSESSREGAITFTWVERSQNGGEPDFHAVEPYTKKELSAVTFPDIIRNYKVMAAENIPENPLKYLYPNIDKDHAFGKYYSRPKEAPEPMELDGPKGTGYIKTELISVSEVHPSRLQTTDNLLPMSPEEFDEVSRIVGSVEFDSMMNTV
notes: STAT1, full-length wild type; One molecule for bait and test copies; Three to five further heterologous residues flank the NES or NLS; cloning details only on request; also called U-STAT1; S1; source: HeLa, transiently transfected, in cells; not shown: mCherry (test copy) or mEGFP (bait copy), C-terminal, kept

What was measured:
Experiment in all cases: co-localization assay (relocalisation of a test protein by a compartment-targeted bait, fluorescence microscopy); HeLa cells co-expressing bait (STAT-NES or STAT-NLS, or wild-type STAT2 with its own export activity; green) and test protein without heterologous signal (red); no cytokine; fixed 20 h after transfection; Pearson correlation coefficient rP in cells with equimolar to 4-fold excess of bait
[1] = biological target: the molecule itself
[2] = biological target: B2; conditions: partners not purified
[3] = biological target: T1, STAT2 (unphosphorylated, wild-type), fluorophore fusion (UniProt P52630 1-851); conditions: partners not purified
T1 construct: STAT2, full-length wild type; used as bait through its own nuclear export activity; No heterologous NES or NLS on wild-type STAT2; also called U-STAT2; S2; source: HeLa, transiently transfected, in cells; not shown: mEGFP or mCherry, C-terminal, kept
T1 sequence (P52630 whole entry, the tested form may be a part): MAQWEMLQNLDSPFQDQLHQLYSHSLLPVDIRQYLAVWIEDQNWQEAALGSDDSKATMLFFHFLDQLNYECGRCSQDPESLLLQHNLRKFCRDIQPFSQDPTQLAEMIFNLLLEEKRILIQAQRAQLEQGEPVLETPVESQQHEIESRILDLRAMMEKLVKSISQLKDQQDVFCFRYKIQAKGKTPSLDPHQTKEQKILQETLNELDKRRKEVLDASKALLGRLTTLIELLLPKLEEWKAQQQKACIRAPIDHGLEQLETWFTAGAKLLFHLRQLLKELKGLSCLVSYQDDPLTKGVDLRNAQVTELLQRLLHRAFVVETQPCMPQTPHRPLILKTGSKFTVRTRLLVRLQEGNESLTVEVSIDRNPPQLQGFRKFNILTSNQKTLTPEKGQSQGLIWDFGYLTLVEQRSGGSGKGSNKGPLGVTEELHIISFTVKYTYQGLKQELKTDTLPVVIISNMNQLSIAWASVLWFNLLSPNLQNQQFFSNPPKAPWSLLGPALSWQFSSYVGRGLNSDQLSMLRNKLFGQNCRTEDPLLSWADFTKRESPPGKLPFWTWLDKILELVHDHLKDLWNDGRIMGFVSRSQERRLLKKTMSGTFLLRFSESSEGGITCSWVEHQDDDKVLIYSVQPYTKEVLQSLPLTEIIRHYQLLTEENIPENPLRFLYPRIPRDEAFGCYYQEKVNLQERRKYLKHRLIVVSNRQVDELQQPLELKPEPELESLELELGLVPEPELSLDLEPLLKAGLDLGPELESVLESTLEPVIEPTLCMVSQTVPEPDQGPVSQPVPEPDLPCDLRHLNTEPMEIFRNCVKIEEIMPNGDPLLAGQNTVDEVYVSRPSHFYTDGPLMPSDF

Row | Pearson correlation coefficient rP (co-localization) [2] | Pearson correlation coefficient rP (co-localization) [3] | Binder | Pearson correlation coefficient rP (co-localization) [1]
1 | – | – | B1 | ≥ 0.94
2 | – | – | B2 | ≥ 0.94
3 | 0.97 | – | B3 | ≥ 0.94
4 | – | 0.97 | B4 | –
